Several values for one entry are separate records, joined by “and”; a condition that tells them apart may be missing. Equal entries are not always repeated.

The source of these data is PMC8455617 (2021).

The chains are these.
B1: malate dehydrogenase, mitochondrial (protein)
chain: AKVAVLGASGGIGQPLSLLLKNSPLVSRLTLYDIAHTPGVAADLSHIETRATVKGYLGPEQLPDCLKGCDVVVIPAGVPRKPGMTRDDLFNTNATIVATLTAACAQHCPDAMICIISNPVNSTIPITAEVFKKHGVYNPNKIFGVTTLDIVRANAFVAELKGLDPARVSVPVIGGHAGKTIIPLISQCTPKVDFPQDQLSTLTGRIQEAGTEVVKAKAGAGSATLSMAYAGARFVFSLVDAMNGKEGVVECSFVKSQETDCPYFSTPLLLGKKGIEKNLGIGKISPFEEKMIAEAIPELKASIKKGEEFVKNMK
modifications: 10 mM succinyl-CoA
B2: malate dehydrogenase, mitochondrial (protein)
chain: AKVAVLGASGGIGQPLSLLLKNSPLVSRLTLYDIAHTPGVAADLSHIETRATVKGYLGPEQLPDCLKGCDVVVIPAGVPRKPGMTRDDLFNTNATIVATLTAACAQHCPDAMICIISNPVNSTIPITAEVFKKHGVYNPNKIFGVTTLDIVRANAFVAELKGLDPARVSVPVIGGHAGKTIIPLISQCTPKVDFPQDQLSTLTGRIQEAGTEVVKAKAGAGSATLSMAYAGARFVFSLVDAMNGKEGVVECSFVKSQETDCPYFSTPLLLGKKGIEKNLGIGKISPFEEKMIAEAIPELKASIKKGEEFVKNMK
modifications: 1.25 mM ATP
B3: malate dehydrogenase, mitochondrial (protein)
chain: AKVAVLGASGGIGQPLSLLLKNSPLVSRLTLYDIAHTPGVAADLSHIETRATVKGYLGPEQLPDCLKGCDVVVIPAGVPRKPGMTRDDLFNTNATIVATLTAACAQHCPDAMICIISNPVNSTIPITAEVFKKHGVYNPNKIFGVTTLDIVRANAFVAELKGLDPARVSVPVIGGHAGKTIIPLISQCTPKVDFPQDQLSTLTGRIQEAGTEVVKAKAGAGSATLSMAYAGARFVFSLVDAMNGKEGVVECSFVKSQETDCPYFSTPLLLGKKGIEKNLGIGKISPFEEKMIAEAIPELKASIKKGEEFVKNMK
modifications: 10 mM succinate
B4: malate dehydrogenase, mitochondrial (protein)
chain: AKVAVLGASGGIGQPLSLLLKNSPLVSRLTLYDIAHTPGVAADLSHIETRATVKGYLGPEQLPDCLKGCDVVVIPAGVPRKPGMTRDDLFNTNATIVATLTAACAQHCPDAMICIISNPVNSTIPITAEVFKKHGVYNPNKIFGVTTLDIVRANAFVAELKGLDPARVSVPVIGGHAGKTIIPLISQCTPKVDFPQDQLSTLTGRIQEAGTEVVKAKAGAGSATLSMAYAGARFVFSLVDAMNGKEGVVECSFVKSQETDCPYFSTPLLLGKKGIEKNLGIGKISPFEEKMIAEAIPELKASIKKGEEFVKNMK
modifications: 10 mM ATP
B5: malate dehydrogenase, mitochondrial (protein)
chain: AKVAVLGASGGIGQPLSLLLKNSPLVSRLTLYDIAHTPGVAADLSHIETRATVKGYLGPEQLPDCLKGCDVVVIPAGVPRKPGMTRDDLFNTNATIVATLTAACAQHCPDAMICIISNPVNSTIPITAEVFKKHGVYNPNKIFGVTTLDIVRANAFVAELKGLDPARVSVPVIGGHAGKTIIPLISQCTPKVDFPQDQLSTLTGRIQEAGTEVVKAKAGAGSATLSMAYAGARFVFSLVDAMNGKEGVVECSFVKSQETDCPYFSTPLLLGKKGIEKNLGIGKISPFEEKMIAEAIPELKASIKKGEEFVKNMK
modifications: 10 mM oxaloacetate
B6: malate dehydrogenase, mitochondrial (protein)
chain: AKVAVLGASGGIGQPLSLLLKNSPLVSRLTLYDIAHTPGVAADLSHIETRATVKGYLGPEQLPDCLKGCDVVVIPAGVPRKPGMTRDDLFNTNATIVATLTAACAQHCPDAMICIISNPVNSTIPITAEVFKKHGVYNPNKIFGVTTLDIVRANAFVAELKGLDPARVSVPVIGGHAGKTIIPLISQCTPKVDFPQDQLSTLTGRIQEAGTEVVKAKAGAGSATLSMAYAGARFVFSLVDAMNGKEGVVECSFVKSQETDCPYFSTPLLLGKKGIEKNLGIGKISPFEEKMIAEAIPELKASIKKGEEFVKNMK
modifications: 10 mM citrate
B7: malate dehydrogenase, mitochondrial (protein)
chain: AKVAVLGASGGIGQPLSLLLKNSPLVSRLTLYDIAHTPGVAADLSHIETRATVKGYLGPEQLPDCLKGCDVVVIPAGVPRKPGMTRDDLFNTNATIVATLTAACAQHCPDAMICIISNPVNSTIPITAEVFKKHGVYNPNKIFGVTTLDIVRANAFVAELKGLDPARVSVPVIGGHAGKTIIPLISQCTPKVDFPQDQLSTLTGRIQEAGTEVVKAKAGAGSATLSMAYAGARFVFSLVDAMNGKEGVVECSFVKSQETDCPYFSTPLLLGKKGIEKNLGIGKISPFEEKMIAEAIPELKASIKKGEEFVKNMK
modifications: 10 mM oxaloacetate and NADH
B8: malate dehydrogenase, mitochondrial (protein)
chain: AKVAVLGASGGIGQPLSLLLKNSPLVSRLTLYDIAHTPGVAADLSHIETRATVKGYLGPEQLPDCLKGCDVVVIPAGVPRKPGMTRDDLFNTNATIVATLTAACAQHCPDAMICIISNPVNSTIPITAEVFKKHGVYNPNKIFGVTTLDIVRANAFVAELKGLDPARVSVPVIGGHAGKTIIPLISQCTPKVDFPQDQLSTLTGRIQEAGTEVVKAKAGAGSATLSMAYAGARFVFSLVDAMNGKEGVVECSFVKSQETDCPYFSTPLLLGKKGIEKNLGIGKISPFEEKMIAEAIPELKASIKKGEEFVKNMK
modifications: 10 mM oxaloacetate and acetyl-CoA
B9: malate dehydrogenase, mitochondrial (protein)
chain: AKVAVLGASGGIGQPLSLLLKNSPLVSRLTLYDIAHTPGVAADLSHIETRATVKGYLGPEQLPDCLKGCDVVVIPAGVPRKPGMTRDDLFNTNATIVATLTAACAQHCPDAMICIISNPVNSTIPITAEVFKKHGVYNPNKIFGVTTLDIVRANAFVAELKGLDPARVSVPVIGGHAGKTIIPLISQCTPKVDFPQDQLSTLTGRIQEAGTEVVKAKAGAGSATLSMAYAGARFVFSLVDAMNGKEGVVECSFVKSQETDCPYFSTPLLLGKKGIEKNLGIGKISPFEEKMIAEAIPELKASIKKGEEFVKNMK
modifications: 10 mM NADH
B10: malate dehydrogenase, mitochondrial (protein)
chain: AKVAVLGASGGIGQPLSLLLKNSPLVSRLTLYDIAHTPGVAADLSHIETRATVKGYLGPEQLPDCLKGCDVVVIPAGVPRKPGMTRDDLFNTNATIVATLTAACAQHCPDAMICIISNPVNSTIPITAEVFKKHGVYNPNKIFGVTTLDIVRANAFVAELKGLDPARVSVPVIGGHAGKTIIPLISQCTPKVDFPQDQLSTLTGRIQEAGTEVVKAKAGAGSATLSMAYAGARFVFSLVDAMNGKEGVVECSFVKSQETDCPYFSTPLLLGKKGIEKNLGIGKISPFEEKMIAEAIPELKASIKKGEEFVKNMK
modifications: 10 mM AMP
B11: malate dehydrogenase, mitochondrial (protein)
chain: AKVAVLGASGGIGQPLSLLLKNSPLVSRLTLYDIAHTPGVAADLSHIETRATVKGYLGPEQLPDCLKGCDVVVIPAGVPRKPGMTRDDLFNTNATIVATLTAACAQHCPDAMICIISNPVNSTIPITAEVFKKHGVYNPNKIFGVTTLDIVRANAFVAELKGLDPARVSVPVIGGHAGKTIIPLISQCTPKVDFPQDQLSTLTGRIQEAGTEVVKAKAGAGSATLSMAYAGARFVFSLVDAMNGKEGVVECSFVKSQETDCPYFSTPLLLGKKGIEKNLGIGKISPFEEKMIAEAIPELKASIKKGEEFVKNMK
modifications: 5 mM ATP
B12: malate dehydrogenase, mitochondrial (protein)
chain: AKVAVLGASGGIGQPLSLLLKNSPLVSRLTLYDIAHTPGVAADLSHIETRATVKGYLGPEQLPDCLKGCDVVVIPAGVPRKPGMTRDDLFNTNATIVATLTAACAQHCPDAMICIISNPVNSTIPITAEVFKKHGVYNPNKIFGVTTLDIVRANAFVAELKGLDPARVSVPVIGGHAGKTIIPLISQCTPKVDFPQDQLSTLTGRIQEAGTEVVKAKAGAGSATLSMAYAGARFVFSLVDAMNGKEGVVECSFVKSQETDCPYFSTPLLLGKKGIEKNLGIGKISPFEEKMIAEAIPELKASIKKGEEFVKNMK
modifications: 10 mM CoA
B13: malate dehydrogenase, mitochondrial (protein)
chain: AKVAVLGASGGIGQPLSLLLKNSPLVSRLTLYDIAHTPGVAADLSHIETRATVKGYLGPEQLPDCLKGCDVVVIPAGVPRKPGMTRDDLFNTNATIVATLTAACAQHCPDAMICIISNPVNSTIPITAEVFKKHGVYNPNKIFGVTTLDIVRANAFVAELKGLDPARVSVPVIGGHAGKTIIPLISQCTPKVDFPQDQLSTLTGRIQEAGTEVVKAKAGAGSATLSMAYAGARFVFSLVDAMNGKEGVVECSFVKSQETDCPYFSTPLLLGKKGIEKNLGIGKISPFEEKMIAEAIPELKASIKKGEEFVKNMK
modifications: 10 mM alpha-ketoglutarate
B14: malate dehydrogenase, mitochondrial (protein)
chain: AKVAVLGASGGIGQPLSLLLKNSPLVSRLTLYDIAHTPGVAADLSHIETRATVKGYLGPEQLPDCLKGCDVVVIPAGVPRKPGMTRDDLFNTNATIVATLTAACAQHCPDAMICIISNPVNSTIPITAEVFKKHGVYNPNKIFGVTTLDIVRANAFVAELKGLDPARVSVPVIGGHAGKTIIPLISQCTPKVDFPQDQLSTLTGRIQEAGTEVVKAKAGAGSATLSMAYAGARFVFSLVDAMNGKEGVVECSFVKSQETDCPYFSTPLLLGKKGIEKNLGIGKISPFEEKMIAEAIPELKASIKKGEEFVKNMK
modifications: 10 mM malate
B15: malate dehydrogenase, mitochondrial (protein)
chain: AKVAVLGASGGIGQPLSLLLKNSPLVSRLTLYDIAHTPGVAADLSHIETRATVKGYLGPEQLPDCLKGCDVVVIPAGVPRKPGMTRDDLFNTNATIVATLTAACAQHCPDAMICIISNPVNSTIPITAEVFKKHGVYNPNKIFGVTTLDIVRANAFVAELKGLDPARVSVPVIGGHAGKTIIPLISQCTPKVDFPQDQLSTLTGRIQEAGTEVVKAKAGAGSATLSMAYAGARFVFSLVDAMNGKEGVVECSFVKSQETDCPYFSTPLLLGKKGIEKNLGIGKISPFEEKMIAEAIPELKASIKKGEEFVKNMK
modifications: 20 mM ATP
B16: malate dehydrogenase, mitochondrial (protein)
chain: AKVAVLGASGGIGQPLSLLLKNSPLVSRLTLYDIAHTPGVAADLSHIETRATVKGYLGPEQLPDCLKGCDVVVIPAGVPRKPGMTRDDLFNTNATIVATLTAACAQHCPDAMICIISNPVNSTIPITAEVFKKHGVYNPNKIFGVTTLDIVRANAFVAELKGLDPARVSVPVIGGHAGKTIIPLISQCTPKVDFPQDQLSTLTGRIQEAGTEVVKAKAGAGSATLSMAYAGARFVFSLVDAMNGKEGVVECSFVKSQETDCPYFSTPLLLGKKGIEKNLGIGKISPFEEKMIAEAIPELKASIKKGEEFVKNMK
modifications: 10 mM ADP

The assay addresses T1, citrate synthase, mitochondrial (Sus scrofa, UniProt P00889).
T1 chain: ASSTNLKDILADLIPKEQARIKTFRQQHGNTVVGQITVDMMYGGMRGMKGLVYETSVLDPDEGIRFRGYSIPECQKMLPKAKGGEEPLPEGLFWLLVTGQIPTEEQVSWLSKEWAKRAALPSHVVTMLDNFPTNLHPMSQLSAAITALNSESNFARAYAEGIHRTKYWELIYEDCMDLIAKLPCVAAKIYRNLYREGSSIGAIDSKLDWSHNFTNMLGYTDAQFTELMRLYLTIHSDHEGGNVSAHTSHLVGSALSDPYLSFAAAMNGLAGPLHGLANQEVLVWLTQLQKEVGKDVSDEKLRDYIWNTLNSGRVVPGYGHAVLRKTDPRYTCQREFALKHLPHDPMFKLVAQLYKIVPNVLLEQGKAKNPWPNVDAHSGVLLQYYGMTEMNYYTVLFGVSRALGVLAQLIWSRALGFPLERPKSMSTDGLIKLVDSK
Briefly: MST.
As a reminder, the Kd is a measure of binding affinity in units of concentration. Take B1: the Kd came to 1970 nM. In turn, B2 showed a dissociation constant Kd of 1060 nM. B3 showed a dissociation constant Kd of 180 nM. Take B4: the dissociation constant (Kd) was 760 nM and 460 nM. For the molecule B5, the dissociation constant (Kd) worked out at 2230 nM. The molecule B6 registered a Kd of 25100 nM.

Consider B7, for which the equilibrium dissociation constant (Kd) amounted to 2010 nM.

B8 displayed an equilibrium dissociation constant (Kd) of 520 nM. For B9 the value was 7500 nM. For B10 the value was 3100 nM; for B11, 770 nM; for B12, 2320 nM. For the molecule B13, binding was put at a Kd of 1140 nM. For B14, the Kd was 1850 nM and 1800 nM. The molecule B15 displayed a Kd of 720 nM. On to B16, for which the dissociation constant Kd was determined as 2240 nM.
